The test concerns the target Mycoplasma penetrans methionyl-tRNA synthetase, full-length, M568A variant (Mycoplasma penetrans). The experiment in a line: SEC-MALS; size exclusion chromatography with multiangle light scattering of the purified enzyme in solution; conditions not told in the main text. In general terms: In gel filtration, larger molecules generally elute earlier.

Consider “Mycoplasma penetrans methionyl-tRNA synthetase, full-length, M568A variant (enzyme)”, for which the stoichiometry N (in general, the number of molecules, sites or subunits per partner or assembly) stood at 2.

These data come from PMC7694997.
